Results taken from article PMC4617613 (Nature, 2015).

B1: PhnG (natural protein)
chain: MHADTATRQHWMSVLAHSQPAELAARLNALNITADYEVIRAAETGLVQIQARMGGTGERFFAGDATLTRAAVRLTDGTLGYSWVQGRDKQHAERCALIDALMQQSRHFQNLSETLIAPLDADRMARIAARQAEVNASRVDFFTMVRGDNA
B2: PhnJ (natural protein)
chain: MANLSGYNFAYLDEQTKRMIRRAILKAVAIPGYQVPFGGREMPMPYGWGTGGIQLTASVIGESDVLKVIDQGADDTTNAVSIRNFFKRVTGVNTTERTDDATVIQTRHRIPETPLTEDQIIIFQVPIPEPLRFIEPRETETRTMHALEEYGVMQVKLYEDIARFGHIATTYAYPVKVNGRYVMDPSPIPKFDNPKMDMMPALQLFGAGREKRIYAVPPFTRVESLDFDDHPFTVQQWDEPCAICGSTHSYLDEVVLDDAGNRMFVCSDTDYCRQQSEAKNQ
B3: PhnI (natural protein)
chain: MYVAVKGGEKAIDAAHALQESRRRGDTDLPELSVAQIEQQLNLAVDRVMTEGGIADRELAALALKQASGDNVEAIFLLRAYRTTLAKLAVSEPLDTTGMRLERRISAVYKDIPGGQLLGPTYDYTHRLLDFTLLANGEAPTLTTADSEQQPSPHVFSLLARQGLAKFEEDSGAQPDDITRTPPVYPCSRSSRLQQLMRGDEGYLLALAYSTQRGYGRNHPFAGEIRSGYIDVSIVPEELGFAVNVGELLMTECEMVNGFIDPPGEPPHFTRGYGLVFGMSERKAMAMALVDRALQAPEYGEHATGPAQDEEFVLAHADNVEAAGFVSHLKLPHYVDFQAELELLKRLQQEQNHG

Key:
[1] = molecular target: B3; assay: crystal structure
[2] = molecular target: the molecule itself; assay: crystal structure

Row | Binder | binding result [1] | stoichiometry N [2]
1 | B1 | binds | –
2 | B2 | binds | –
3 | B3 | – | 2
